The source of these data is publication PMC6356861 (ACS Omega, 2019).

The data set concerns the molecule itself. The data set is described as follows: SAXS.

B1: simian virus 40 (SV40) major capsid protein VP1, as soluble VP1 pentamers (natural protein)
chain: APTKRKGSCPGAAPKKPKEPVQVPKLVIKGGIEVLGVKTGVDSFTEVECFLNPQMGNPDEHQKGLSKSLAAEKQFTDDSPDKEQLPCYSVARIPLPNINEDLTCGNILMWEAVTVKTEVIGVTAMLNLHSGTQKTHENGAGKPIQGSNFHFFAVGGEPLELQGVLANYRTKYPAQTVTPKNATVDSQQMNTDHKAVLDKDNAYPVECWVPDPSKNENTRYFGTYTGGENVPPVLHITNTATTVLLDEQGVGPLCKADSLYVSAVDICGLFTNTSGTQQWKGLPRYFKITLRKRSVKNPYPISFLLSDLINRRTQRVDGQPMIGMSSQVEEVRVYEDTEELPGDPDMIRYIDEFGQTTTRMQ
For B1, the binding result is recorded as “binds”.
